Results taken from publication PMC6796840, “An H3K27me3 demethylase-HSFA2 regulatory loop orchestrates transgenerational thermomemory in Arabidopsis”.

Target: His-HSFA2 (Arabidopsis thaliana, UniProt O80982 1-345)
Experiment: EMSA; HSFA2: 10 mM Tris-HCl pH 7.6, 25 mM KCl, 2.5 mM MgCl2, 1 mM EDTA, 1 mM DTT, 10% glycerol, 25 C 30 min; REF6C: 25 mM Tris-HCl pH 8.0, 100 mM NaCl, 2.5 mM MgCl2
Settings: protein: recombinant; tags: His (pET32a in Methods); chain copies: 3; label: Cy5 end

Chain of His-HSFA2 (O80982 whole entry): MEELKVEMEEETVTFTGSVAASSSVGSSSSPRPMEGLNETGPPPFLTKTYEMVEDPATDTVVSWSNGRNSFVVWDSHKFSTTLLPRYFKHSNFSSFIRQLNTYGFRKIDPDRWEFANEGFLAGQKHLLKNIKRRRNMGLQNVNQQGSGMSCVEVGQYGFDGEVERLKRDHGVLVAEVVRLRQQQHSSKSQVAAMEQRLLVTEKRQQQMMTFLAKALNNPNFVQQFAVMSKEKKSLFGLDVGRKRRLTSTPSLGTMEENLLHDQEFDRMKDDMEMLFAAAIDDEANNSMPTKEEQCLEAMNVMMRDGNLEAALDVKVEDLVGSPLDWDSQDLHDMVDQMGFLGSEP

B1: BRM-HSE-P1 (dsDNA)
DNA 1: AGCCAGTGGCGATAAGAACAAATTTATTCAGGAATCAGAAACACTTATCGCCACTGGCT
DNA 2: AGCCAGTGGCGATAAGTGTTTCTGATTCCTGAATAAATTTGTTCTTATCGCCACTGGCT
**Q.** Does B1 bind?
**A.** binds

B2: BRM-HSE-P3 (dsDNA)
DNA 1: AGCCAGTGGCGATAAGATTTTTATTTTTCGAGAAGCCATCTCACTTATCGCCACTGGCT
DNA 2: AGCCAGTGGCGATAAGTGAGATGGCTTCTCGAAAAATAAAAATCTTATCGCCACTGGCT
**Q.** Does B2 bind?
**A.** binds

B3: REF6-HSE-P1 (dsDNA)
DNA 1: AGCCAGTGGCGATAAGCTACTAATTTCATGAACTACCAAAGACTCTTATCGCCACTGGCT
DNA 2: AGCCAGTGGCGATAAGAGTCTTTGGTAGTTCATGAAATTAGTAGCTTATCGCCACTGGCT
**Q.** Does B3 bind?
**A.** binds

B4: SGIP1-HSE-P4 (dsDNA)
DNA 1: AGCCAGTGGCGATAAGCTCTGAAAAGTTTCTGTCGAAGTCTTATCGCCACTGGCT
DNA 2: AGCCAGTGGCGATAAGACTTCGACAGAAACTTTTCAGAGCTTATCGCCACTGGCT
**Q.** Does B4 bind?
**A.** binds

B5: BRM-HSE-P2 (dsDNA)
DNA 1: AGCCAGTGGCGATAAGTTTTACTTGTTTCGGGAAAAAAAACTACTTATCGCCACTGGCT
DNA 2: AGCCAGTGGCGATAAGTAGTTTTTTTTCCCGAAACAAGTAAAACTTATCGCCACTGGCT
**Q.** Does B5 bind?
**A.** binds
